Measured values reported in the RNAGym collection of RNA variant scans (doi:10.1021/acssynbio.7b00057).

B1: Pistol ribozyme (parent)
chain: GGGUCGUUGUUCCAUAAUCGCGUGGAUAUGGCACGCAAGUUUCUACCGGGCACCGUAAAUGUCCGACUGGAGCCGUUCGGGCGGCUAUAAACAGACCUCAGGCCCGAAGCGUGGCGGCACCUGCCGCCGGUGGUAAAAAAGAUCGGAAGAGCACACGUCU

Variants of: B1
Test: aptazyme ON/OFF ratio, guanine; higher = stronger switching; co-transcriptional cleavage with and without guanine

Variant	aptazyme ON/OFF ratio
GGGUCGUCCAUCUAUAAUCGCGUGGAUAUGGCACGCAAGUUUCUACCGGGCACCGUAAAUGUCCGACUGGAGCCGUUCGGGCGGCUAUAAACAGACCUCAGGCCCGAAGCGUGGCGGCACCUGCCGCCGGUGGUAAAAAAGAUCGGAAGAGCACACGUCU [U8C G9C U10A C13U]	1.07
GGGUCGUCGAUAAAUAAUCGCGUGGAUAUGGCACGCAAGUUUCUACCGGGCACCGUAAAUGUCCGACUGGAGCCGUUCGGGCGGCUAUAAACAGACCUCAGGCCCGAAGCGUGGCGGCACCUGCCGCCGGUGGUAAAAAAGAUCGGAAGAGCACACGUCU [U8C U10A C12A C13A]	1.26
GGGUCGUUGGAACAUAAUCGCGUGGAUAUGGCACGCAAGUUUCUACCGGGCACCGUAAAUGUCCGACUGGAGCCGUUCGGGCGGCUAUAAACAGACCUCAGGCCCGAAGCGUGGCGGCACCUGCCGCCGGUGGUAAAAAAGAUCGGAAGAGCACACGUCU [U10G U11A C12A]	1.39
GGGUCGAGUUAUUAUAAUCGCGUGGAUAUGGCACGCAAGUUUCUACCGGGCACCGUAAAUGUCCGACUGGAGCCGUUCGGGCGGCUAUAAACAGACCUCAGGCCCGAAGCGUGGCGGCACCUGCCGCCGGUGGUAAAAAAGAUCGGAAGAGCACACGUCU [U7A U8G G9U U11A C12U C13U]	1.07
GGGUCGAGCUUCUAUAAUCGCGUGGAUAUGGCACGCAAGUUUCUACCGGGCACCGUAAAUGUCCGACUGGAGCCGUUCGGGCGGCUAUAAACAGACCUCAGGCCCGAAGCGUGGCGGCACCUGCCGCCGGUGGUAAAAAAGAUCGGAAGAGCACACGUCU [U7A U8G G9C C13U]	1.42
GGGUCGUAUCCACAUAAUCGCGUGGAUAUGGCACGCAAGUUUCUACCGGGCACCGUAAAUGUCCGACUGGAGCCGUUCGGGCGGCUAUAAACAGACCUCAGGCCCGAAGCGUGGCGGCACCUGCCGCCGGUGGUAAAAAAGAUCGGAAGAGCACACGUCU [U8A G9U U10C U11C C12A]	1.01
GGGUCGAGAUUUAAUAAUCGCGUGGAUAUGGCACGCAAGUUUCUACCGGGCACCGUAAAUGUCCGACUGGAGCCGUUCGGGCGGCUAUAAACAGACCUCAGGCCCGAAGCGUGGCGGCACCUGCCGCCGGUGGUAAAAAAGAUCGGAAGAGCACACGUCU [U7A U8G G9A C12U C13A]	1.28
GGGUCGCUCUUUAAUAAUCGCGUGGAUAUGGCACGCAAGUUUCUACCGGGCACCGUAAAUGUCCGACUGGAGCCGUUCGGGCGGCUAUAAACAGACCUCAGGCCCGAAGCGUGGCGGCACCUGCCGCCGGUGGUAAAAAAGAUCGGAAGAGCACACGUCU [U7C G9C C12U C13A]	1.01
GGGUCGAACCUCCAUAAUCGCGUGGAUAUGGCACGCAAGUUUCUACCGGGCACCGUAAAUGUCCGACUGGAGCCGUUCGGGCGGCUAUAAACAGACCUCAGGCCCGAAGCGUGGCGGCACCUGCCGCCGGUGGUAAAAAAGAUCGGAAGAGCACACGUCU [U7A U8A G9C U10C]	1.8
GGGUCGUUUCAUCAUAAUCGCGUGGAUAUGGCACGCAAGUUUCUACCGGGCACCGUAAAUGUCCGACUGGAGCCGUUCGGGCGGCUAUAAACAGACCUCAGGCCCGAAGCGUGGCGGCACCUGCCGCCGGUGGUAAAAAAGAUCGGAAGAGCACACGUCU [G9U U10C U11A C12U]	1.89
GGGUCGGAUAGAGAUAAUCGCGUGGAUAUGGCACGCAAGUUUCUACCGGGCACCGUAAAUGUCCGACUGGAGCCGUUCGGGCGGCUAUAAACAGACCUCAGGCCCGAAGCGUGGCGGCACCUGCCGCCGGUGGUAAAAAAGAUCGGAAGAGCACACGUCU [U7G U8A G9U U10A U11G C12A C13G]	1.06
GGGUCGACAUGGUAUAAUCGCGUGGAUAUGGCACGCAAGUUUCUACCGGGCACCGUAAAUGUCCGACUGGAGCCGUUCGGGCGGCUAUAAACAGACCUCAGGCCCGAAGCGUGGCGGCACCUGCCGCCGGUGGUAAAAAAGAUCGGAAGAGCACACGUCU [U7A U8C G9A U11G C12G C13U]	1.15
GGGUCGCGUUAUGAUAAUCGCGUGGAUAUGGCACGCAAGUUUCUACCGGGCACCGUAAAUGUCCGACUGGAGCCGUUCGGGCGGCUAUAAACAGACCUCAGGCCCGAAGCGUGGCGGCACCUGCCGCCGGUGGUAAAAAAGAUCGGAAGAGCACACGUCU [U7C U8G G9U U11A C12U C13G]	1.24
GGGUCGGGACCACAUAAUCGCGUGGAUAUGGCACGCAAGUUUCUACCGGGCACCGUAAAUGUCCGACUGGAGCCGUUCGGGCGGCUAUAAACAGACCUCAGGCCCGAAGCGUGGCGGCACCUGCCGCCGGUGGUAAAAAAGAUCGGAAGAGCACACGUCU [U7G U8G G9A U10C U11C C12A]	1.22
GGGUCGGGGGUACAUAAUCGCGUGGAUAUGGCACGCAAGUUUCUACCGGGCACCGUAAAUGUCCGACUGGAGCCGUUCGGGCGGCUAUAAACAGACCUCAGGCCCGAAGCGUGGCGGCACCUGCCGCCGGUGGUAAAAAAGAUCGGAAGAGCACACGUCU [U7G U8G U10G C12A]	1.31
GGGUCGAAGGCGCAUAAUCGCGUGGAUAUGGCACGCAAGUUUCUACCGGGCACCGUAAAUGUCCGACUGGAGCCGUUCGGGCGGCUAUAAACAGACCUCAGGCCCGAAGCGUGGCGGCACCUGCCGCCGGUGGUAAAAAAGAUCGGAAGAGCACACGUCU [U7A U8A U10G U11C C12G]	1.32
GGGUCGGCUUUACAUAAUCGCGUGGAUAUGGCACGCAAGUUUCUACCGGGCACCGUAAAUGUCCGACUGGAGCCGUUCGGGCGGCUAUAAACAGACCUCAGGCCCGAAGCGUGGCGGCACCUGCCGCCGGUGGUAAAAAAGAUCGGAAGAGCACACGUCU [U7G U8C G9U C12A]	1.35
GGGUCGUACGGGGAUAAUCGCGUGGAUAUGGCACGCAAGUUUCUACCGGGCACCGUAAAUGUCCGACUGGAGCCGUUCGGGCGGCUAUAAACAGACCUCAGGCCCGAAGCGUGGCGGCACCUGCCGCCGGUGGUAAAAAAGAUCGGAAGAGCACACGUCU [U8A G9C U10G U11G C12G C13G]	1.23

Variant	aptazyme ON/OFF ratio
GGGUCGGGGGGACAUAAUCGCGUGGAUAUGGCACGCAAGUUUCUACCGGGCACCGUAAAUGUCCGACUGGAGCCGUUCGGGCGGCUAUAAACAGACCUCAGGCCCGAAGCGUGGCGGCACCUGCCGCCGGUGGUAAAAAAGAUCGGAAGAGCACACGUCU [U7G U8G U10G U11G C12A]	1.23
GGGUCGCUGGAUCAUAAUCGCGUGGAUAUGGCACGCAAGUUUCUACCGGGCACCGUAAAUGUCCGACUGGAGCCGUUCGGGCGGCUAUAAACAGACCUCAGGCCCGAAGCGUGGCGGCACCUGCCGCCGGUGGUAAAAAAGAUCGGAAGAGCACACGUCU [U7C U10G U11A C12U]	1.15
GGGUCGCUUGCAUAUAAUCGCGUGGAUAUGGCACGCAAGUUUCUACCGGGCACCGUAAAUGUCCGACUGGAGCCGUUCGGGCGGCUAUAAACAGACCUCAGGCCCGAAGCGUGGCGGCACCUGCCGCCGGUGGUAAAAAAGAUCGGAAGAGCACACGUCU [U7C G9U U10G U11C C12A C13U]	1.17
GGGUCGCGUCCAUAUAAUCGCGUGGAUAUGGCACGCAAGUUUCUACCGGGCACCGUAAAUGUCCGACUGGAGCCGUUCGGGCGGCUAUAAACAGACCUCAGGCCCGAAGCGUGGCGGCACCUGCCGCCGGUGGUAAAAAAGAUCGGAAGAGCACACGUCU [U7C U8G G9U U10C U11C C12A C13U]	1.18
GGGUCGAGUACCUAUAAUCGCGUGGAUAUGGCACGCAAGUUUCUACCGGGCACCGUAAAUGUCCGACUGGAGCCGUUCGGGCGGCUAUAAACAGACCUCAGGCCCGAAGCGUGGCGGCACCUGCCGCCGGUGGUAAAAAAGAUCGGAAGAGCACACGUCU [U7A U8G G9U U10A U11C C13U]	0.998
GGGUCGAGCAAUCAUAAUCGCGUGGAUAUGGCACGCAAGUUUCUACCGGGCACCGUAAAUGUCCGACUGGAGCCGUUCGGGCGGCUAUAAACAGACCUCAGGCCCGAAGCGUGGCGGCACCUGCCGCCGGUGGUAAAAAAGAUCGGAAGAGCACACGUCU [U7A U8G G9C U10A U11A C12U]	1.44
GGGUCGCCCCUAUAUAAUCGCGUGGAUAUGGCACGCAAGUUUCUACCGGGCACCGUAAAUGUCCGACUGGAGCCGUUCGGGCGGCUAUAAACAGACCUCAGGCCCGAAGCGUGGCGGCACCUGCCGCCGGUGGUAAAAAAGAUCGGAAGAGCACACGUCU [U7C U8C G9C U10C C12A C13U]	1.1
GGGUCGAACAACCAUAAUCGCGUGGAUAUGGCACGCAAGUUUCUACCGGGCACCGUAAAUGUCCGACUGGAGCCGUUCGGGCGGCUAUAAACAGACCUCAGGCCCGAAGCGUGGCGGCACCUGCCGCCGGUGGUAAAAAAGAUCGGAAGAGCACACGUCU [U7A U8A G9C U10A U11A]	1.21
GGGUCGAUCUCUCAUAAUCGCGUGGAUAUGGCACGCAAGUUUCUACCGGGCACCGUAAAUGUCCGACUGGAGCCGUUCGGGCGGCUAUAAACAGACCUCAGGCCCGAAGCGUGGCGGCACCUGCCGCCGGUGGUAAAAAAGAUCGGAAGAGCACACGUCU [U7A G9C U11C C12U]	1.09
GGGUCGGGCUCGGAUAAUCGCGUGGAUAUGGCACGCAAGUUUCUACCGGGCACCGUAAAUGUCCGACUGGAGCCGUUCGGGCGGCUAUAAACAGACCUCAGGCCCGAAGCGUGGCGGCACCUGCCGCCGGUGGUAAAAAAGAUCGGAAGAGCACACGUCU [U7G U8G G9C U11C C12G C13G]	1.06
GGGUCGUUAGCGGAUAAUCGCGUGGAUAUGGCACGCAAGUUUCUACCGGGCACCGUAAAUGUCCGACUGGAGCCGUUCGGGCGGCUAUAAACAGACCUCAGGCCCGAAGCGUGGCGGCACCUGCCGCCGGUGGUAAAAAAGAUCGGAAGAGCACACGUCU [G9A U10G U11C C12G C13G]	1.27
GGGUCGUCCCUGUAUAAUCGCGUGGAUAUGGCACGCAAGUUUCUACCGGGCACCGUAAAUGUCCGACUGGAGCCGUUCGGGCGGCUAUAAACAGACCUCAGGCCCGAAGCGUGGCGGCACCUGCCGCCGGUGGUAAAAAAGAUCGGAAGAGCACACGUCU [U8C G9C U10C C12G C13U]	1.08
GGGUCGACGAGAGAUAAUCGCGUGGAUAUGGCACGCAAGUUUCUACCGGGCACCGUAAAUGUCCGACUGGAGCCGUUCGGGCGGCUAUAAACAGACCUCAGGCCCGAAGCGUGGCGGCACCUGCCGCCGGUGGUAAAAAAGAUCGGAAGAGCACACGUCU [U7A U8C U10A U11G C12A C13G]	1.15
GGGUCGGAGCUCCAUAAUCGCGUGGAUAUGGCACGCAAGUUUCUACCGGGCACCGUAAAUGUCCGACUGGAGCCGUUCGGGCGGCUAUAAACAGACCUCAGGCCCGAAGCGUGGCGGCACCUGCCGCCGGUGGUAAAAAAGAUCGGAAGAGCACACGUCU [U7G U8A U10C]	2.69
GGGUCGCCUCUCGAUAAUCGCGUGGAUAUGGCACGCAAGUUUCUACCGGGCACCGUAAAUGUCCGACUGGAGCCGUUCGGGCGGCUAUAAACAGACCUCAGGCCCGAAGCGUGGCGGCACCUGCCGCCGGUGGUAAAAAAGAUCGGAAGAGCACACGUCU [U7C U8C G9U U10C C13G]	1.08
GGGUCGUGGCCGUAUAAUCGCGUGGAUAUGGCACGCAAGUUUCUACCGGGCACCGUAAAUGUCCGACUGGAGCCGUUCGGGCGGCUAUAAACAGACCUCAGGCCCGAAGCGUGGCGGCACCUGCCGCCGGUGGUAAAAAAGAUCGGAAGAGCACACGUCU [U8G U10C U11C C12G C13U]	1.15
GGGUCGCAAGAGUAUAAUCGCGUGGAUAUGGCACGCAAGUUUCUACCGGGCACCGUAAAUGUCCGACUGGAGCCGUUCGGGCGGCUAUAAACAGACCUCAGGCCCGAAGCGUGGCGGCACCUGCCGCCGGUGGUAAAAAAGAUCGGAAGAGCACACGUCU [U7C U8A G9A U10G U11A C12G C13U]	1.24
GGGUCGCUAACGUAUAAUCGCGUGGAUAUGGCACGCAAGUUUCUACCGGGCACCGUAAAUGUCCGACUGGAGCCGUUCGGGCGGCUAUAAACAGACCUCAGGCCCGAAGCGUGGCGGCACCUGCCGCCGGUGGUAAAAAAGAUCGGAAGAGCACACGUCU [U7C G9A U10A U11C C12G C13U]	1.12
